From the supplement of paper PMC10567573

B1: CAMK2A (parent)
chain: ILLVGYPPFWDEDQHRLYKQIKAG
B2: SNAP91 (parent)
chain: FSTDAFSSPPQGASPVPESSLTAD

Variants of: B1
Test: protein stability index of a GFP-peptide fusion (GPS, HEK-293T) (PSI 1-6); higher = more stable
Settings: c terminus: a fixed tail appended
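Note: lentivirally expressed fusions sorted by FACS into six bins by GFP to DsRed ratio, PSI derived from sequencing read proportions per bin multiplied by bin number.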

In order of rising protein stability index:
1. V4A  1.07
2. W10M  1.18
3. D11R  1.21
4. Y6H  1.28
5. P7Q  1.28
6. F9W  1.28
7. L2F  1.3
8. Y6K  1.39
9. P7D  1.39
10. E12N  1.42
11. L2Q  1.42
12. Y6S  1.43
13. P7E  1.43
14. F9E  1.44
15. Y6V  1.45
16. P7A  1.47
17. V4R  1.47
18. E12A  1.49
19. G5Y  1.49
20. F9Y  1.5
21. W10R  1.52
22. L2N  1.52
23. G5W  1.53
24. V4E  1.53
25. D11G  1.55
26. G5D  1.55
27. W10H  1.56
28. L3K  1.58
29. I1T  1.58
30. W10K  1.6
31. L2A  1.6
32. Y6L  1.61
33. D11Y  1.61
34. Y6C  1.62
35. F9I  1.62
36. L2K  1.63
37. W10C  1.64
38. V4C  1.64
39. L3A  1.65
40. F9A  1.65
41. V4S  1.65
42. Y6A  1.67
43. P8D  1.67
44. F9G  1.67
45. L2V  1.67
46. W10D  1.69
47. W10N  1.71
48. L3M  1.72
49. I1F  1.72
50. L2H  1.72
51. W10A  1.73
52. I1Y  1.73
53. V4P  1.73
54. L3Y  1.74
55. L2S  1.75
56. D13E  1.76
57. Y6T  1.77
58. F9D  1.77
59. W10E  1.78
60. L3Q  1.79
61. I1M  1.8
62. P8L  1.81
63. I1Q  1.82
64. P8A  1.83
65. F9H  1.84
66. F9T  1.84
67. D11T  1.85
68. W10G  1.86
69. L2T  1.86
70. L2P  1.86
71. P8T  1.87
72. L3G  1.88
73. P8M  1.89
74. E12K  1.92
75. V4N  1.92
76. Y6N  1.93
77. E12L  1.95
78. E12T  1.96
79. L3T  1.97
80. P8Y  1.98
81. G5N  1.99
82. F9M  1.99
83. E12F  2.03
84. I1N  2.03
85. L2E  2.04
86. W10Y  2.05
87. W10V  2.05
88. I1L  2.05
89. P8K  2.06
90. Y6E  2.1
91. P8E  2.1
92. I1D  2.1
93. L2C  2.11
94. Y6D  2.12
95. L2D  2.12
96. F9P  2.13
97. V4Y  2.13
98. I1V  2.15
99. Y6Q  2.17
100. D11V  2.18
101. Y6P  2.19
102. L3E  2.19
103. F9S  2.19
104. I1G  2.21
105. Y6G  2.23
106. E12R  2.23
107. I1K  2.23
108. V4K  2.23
109. V4H  2.23
110. L3H  2.24
111. V4G  2.24
112. I1A  2.25
113. W10Q  2.27
114. W10F  2.27
115. E12D  2.27
116. G5A  2.27
117. I1P  2.27
118. F9L  2.27
119. E12H  2.29
120. D11H  2.29
121. L3N  2.31
122. P7G  2.31
123. V4T  2.31
124. E12W  2.32
125. G5H  2.32
126. I1S  2.33
127. V4Q  2.33
128. W10T  2.34
129. D11A  2.34
130. L3V  2.35
131. D11P  2.35
132. G5K  2.35
133. Y6M  2.36
134. D13C  2.36
135. G5Q  2.37
136. F9V  2.37
137. F9Q  2.38
138. D11L  2.39
139. I1C  2.39
140. L3W  2.4
141. L3S  2.4
142. L2G  2.4
143. V4D  2.4
144. D11W  2.44
145. W10S  2.45
146. P7I  2.46
147. D11K  2.46
148. D11C  2.48
149. D11M  2.52
150. F9K  2.52
151. G5M  2.53
152. W10L  2.54
153. I1R  2.54
154. E12V  2.56
155. P7T  2.56
156. E12Y  2.57
157. L2I  2.57
158. L3I  2.58
159. L3P  2.58
160. F9C  2.58
161. D11N  2.59
162. D11S  2.62
163. L3D  2.63
164. P7V  2.63
165. G5R  2.65
166. V4L  2.66
167. L3F  2.68
168. W10I  2.71
169. Y6F  2.73
170. P7W  2.73
171. G5T  2.74
172. E12I  2.76
173. V4F  2.76
174. F9R  2.83
175. E12P  2.84
176. P7F  2.85
177. F9N  2.86
178. P7L  2.89
179. P7M  2.9
180. L2Y  2.93
181. P8F  2.95
182. P8V  2.96
183. I1E  2.96
184. D11F  3.09
185. L2M  3.1
186. V4I  3.1
187. Y6W  3.13
188. G5P  3.17
189. D13A  3.24
190. E12M  3.3
191. E12Q  3.3
192. P8R  3.38
193. D11E  3.38
194. G5F  3.4
195. D11I  3.45
196. G5E  3.74
197. W10P  3.75
198. P7H  3.75
199. G5V  3.83
200. P8N  4.23
201. P7Y  4.41
202. P8C  4.72
203. Y6I  5.07

Variants of: B2
Test: as above
Settings: c terminus: a fixed tail appended

In order of rising protein stability index:
1. D24W  1.87
2. D24F  2.12
3. D24V  2.18
4. S19K  2.23
5. A23C  2.23
6. D24Y  2.25
7. E18W  2.26
8. T22W  2.28
9. E18L  2.42
10. D24H  2.42
11. E18C  2.43
12. E18F  2.45
13. S19G  2.46
14. S20P  2.46
15. E18K  2.51
16. S20W  2.52
17. S19R  2.55
18. S19F  2.58
19. E18N  2.61
20. D24N  2.62
21. E18I  2.63
22. T22K  2.64
23. E18R  2.65
24. A23W  2.65
25. S19M  2.66
26. S20F  2.68
27. E18H  2.69
28. S20L  2.72
29. E18Y  2.74
30. D24G  2.75
31. S19W  2.76
32. S20V  2.77
33. E18P  2.78
34. D24S  2.78
35. S19L  2.79
36. A23P  2.8
37. L21Y  2.81
38. E18T  2.81
39. S20I  2.81
40. T22P  2.83
41. E18M  2.83
42. D24C  2.83
43. S19V  2.85
44. A23H  2.85
45. D24T  2.89
46. S19I  2.91
47. L21W  2.92
48. T22A  2.92
49. D24I  2.92
50. T22R  2.93
51. S20Y  2.93
52. A23S  2.94
53. T22F  2.96
54. A23V  2.96
55. A23R  2.96
56. A23M  2.97
57. S20M  2.98
58. L21I  3.01
59. D24Q  3.01
60. A23F  3.01
61. D24E  3.02
62. D24A  3.03
63. S20G  3.04
64. S20Q  3.04
65. S20H  3.04
66. E18G  3.05
67. E18V  3.05
68. D24L  3.07
69. S19A  3.08
70. A23I  3.08
71. T22H  3.09
72. T22N  3.09
73. S19P  3.09
74. S20K  3.09
75. A23G  3.09
76. L21F  3.1
77. S19Q  3.1
78. L21M  3.11
79. L21R  3.11
80. L21K  3.12
81. E18Q  3.12
82. S19H  3.13
83. S20R  3.13
84. L21G  3.14
85. E18D  3.15
86. S20C  3.18
87. D24K  3.18
88. E18S  3.19
89. S19E  3.19
90. S19C  3.19
91. D24M  3.19
92. T22Y  3.21
93. T22I  3.21
94. E18A  3.22
95. A23L  3.23
96. S19Y  3.25
97. T22C  3.3
98. T22G  3.3
99. T22M  3.31
100. L21P  3.33
101. A23T  3.35
102. A23E  3.35
103. T22Q  3.36
104. A23D  3.36
105. L21C  3.38
106. S20N  3.38
107. L21V  3.39
108. L21N  3.39
109. T22V  3.41
110. L21A  3.44
111. S19N  3.44
112. L21T  3.45
113. T22D  3.46
114. L21H  3.47
115. S20T  3.47
116. S20D  3.48
117. S20E  3.49
118. D24R  3.49
119. A23K  3.49
120. A23N  3.5
121. L21Q  3.53
122. S19T  3.54
123. S20A  3.56
124. L21S  3.58
125. S19D  3.6
126. T22S  3.63
127. T22L  3.63
128. L21D  3.86
129. T22E  3.86
130. A23Q  3.91
131. L21E  4.1
